Starred links: 1 amine or outer side, 2 acyl side, 3 side chain; linkers in the order of their positions; H or OH if unused. Positions of bridges follow the written chain, without caps; N, C: chain ends. Non-standard residues stand in square brackets, D forms with d. Primed or numbered codes have the meaning given here. No end group written: not given here. *: point of attachment. Aph(SaPr) = 4-amino-L-phenylalanine, ring amine acylated by 3-sulfamoylpropanoic acid, NS(=O)(=O)CCC(=O)Nc1ccc(C[C@H](N[*:1])C(=O)[*:2])cc1; Aph(2Thz) = 4-aminophenylalanine with 1,3-thiazole-2-carbonyl on the ring amine, O=C(Nc1ccc(C[C@H](N[*:1])C(=O)[*:2])cc1)c1nccs1; Aph(Iva) = 4-aminophenylalanine acylated on the ring amine with isovaleric acid, CC(C)CC(=O)Nc1ccc(C[C@H](N[*:1])C(=O)[*:2])cc1; Aph(FAc) = 4-aminophenylalanine acylated on the ring amine with fluoroacetic acid, O=C(CF)Nc1ccc(C[C@H](N[*:1])C(=O)[*:2])cc1; DOTA(Lu) = O=C1CN2CCN3CCN(CC(=O)*)CCN(CC2)CC(=O)[O][Lu]([O]1)[O]C(=O)C3; Phe(3-NHCO(CH2)3SO2NH2) = N[C@@H](Cc1cccc(NC(=O)CCCS(N)(=O)=O)c1)C(=O)O; APAc″ = 2-(4-(amino)piperidin-1-yl)acetic acid, NC1CCN(CC(=O)*)CC1; DOTA = O=C(O)CN1CCN(CC(=O)O)CCN(CC(=O)*)CCN(CC(=O)O)CC1; Pyridine(3,5-bisCH2) = c1ncc(C[*:2])cc1C[*:1]; mXylylene = c1cc(C[*:1])cc(C[*:2])c1; N6iQui = not defined here; Dab = NCC[C@H](N)C(=O)O; Thp = NC1(C(=O)O)CCOCC1
Key:
[1] = biological target: T1, human carbonic anhydrase 9 (CAIX) (human, UniProt Q16790 38-459); experiment: FACS competition on HT-29 cells, competitor tracer 3BP-2776; category C = pIC50 6.1-7.0
Procedure: (§1) CAIX-expressing human HT-29 colorectal cancer cells (DSMZ, RRID: CVCL_0320) were cultured in McCoys's 5A modified medium (Biochrom, #F1015) including 10% fetal calf serum (FCS), 2 mM L-glutamine, 100 U/ml penicillin and 100 μg/mL streptomycin. Cells were detached with Accutase (Biolegend, #423201) and washed in FACS buffer (PBS including 1% FCS). Cells were diluted in FACS buffer to a final concentration of 500.000 cells per ml. 200 μL of the cell suspension were transferred to a u-shaped non-binding 96-well plate (Greiner) and cells were washed in ice-cold FACS buffer.
(§2) When biotinylated compounds were used an additional incubation step with 1 μg/mL APC-Streptavidin (Miltenyi; #130-106-791) in 50 μL FACS buffer for 30 minutes on ice was performed.
(§3) Cells were washed twice with ice-cold FACS buffer and analyzed in an Attune NxT flow cytometer (Thermo Fisher). Median fluorescence intensities (MFI) of the APC/Cy5-channel were calculated by Attune NxT software.

[2] = biological target: T1, human carbonic anhydrase 9 (CAIX); experiment: FACS competition on HT-29 cells, competitor tracer 3BP-4149; category C = pIC50 6.1-7.0
Procedure: as §1, §2, §3

[3] = biological target: T2, human carbonic anhydrase 4 (CAIV), biotinylated (Sino Biological Cat #10472-H08H) (human, UniProt P22748 19-283, biotinylated (sites not given)); experiment: SPR (Biacore T200), biotinylated CAIV captured with Biotin CAPture Kit; limit of the category in which no binding is told
T2 construct: Bought protein, biotinylated and captured with the Biotin CAPture Kit; also called hCAIV-bio; carbonic anhydrase IV
T2 sequence (P22748 19-283 limits assumed): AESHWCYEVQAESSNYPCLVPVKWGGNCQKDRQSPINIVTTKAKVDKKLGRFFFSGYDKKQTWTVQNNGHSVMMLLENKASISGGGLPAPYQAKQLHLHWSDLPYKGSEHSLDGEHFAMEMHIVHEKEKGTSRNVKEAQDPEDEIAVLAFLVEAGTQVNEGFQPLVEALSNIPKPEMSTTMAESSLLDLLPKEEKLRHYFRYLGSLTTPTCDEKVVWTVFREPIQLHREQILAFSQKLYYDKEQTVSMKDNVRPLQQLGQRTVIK

[4] = biological target: T3, human carbonic anhydrase 14 (CAXIV), biotinylated (Sino Biological Cat #10458-H08H) (human, UniProt Q9ULX7 16-290, biotinylated (sites not given)); experiment: SPR (Biacore T200), biotinylated CAXIV captured with Biotin CAPture Kit; limit of the category in which no binding is told
T3 construct: Bought protein, biotinylated and captured with the Biotin CAPture Kit; also called hCAXIV-bio; carbonic anhydrase XIV
T3 sequence (Q9ULX7 16-290 limits assumed): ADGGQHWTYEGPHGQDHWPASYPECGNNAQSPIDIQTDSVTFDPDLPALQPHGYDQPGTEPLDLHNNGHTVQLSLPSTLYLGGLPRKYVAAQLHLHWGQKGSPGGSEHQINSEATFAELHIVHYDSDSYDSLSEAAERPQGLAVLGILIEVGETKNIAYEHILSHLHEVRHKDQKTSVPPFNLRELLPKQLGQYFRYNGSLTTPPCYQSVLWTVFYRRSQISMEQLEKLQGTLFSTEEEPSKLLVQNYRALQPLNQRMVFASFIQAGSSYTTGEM

[5] = biological target: T4, human carbonic anhydrase 12 (CAXII), biotinylated (Sino Biological Cat #10617-H08H) (human, UniProt O43570 25-301, biotinylated (sites not given)); experiment: SPR (Biacore T200), biotinylated CAXII captured with Biotin CAPture Kit; limit of the category in which no binding is told
T4 construct: Bought protein, biotinylated and captured with the Biotin CAPture Kit; also called hCAXII-bio; carbonic anhydrase XII
T4 sequence (O43570 25-301 limits assumed): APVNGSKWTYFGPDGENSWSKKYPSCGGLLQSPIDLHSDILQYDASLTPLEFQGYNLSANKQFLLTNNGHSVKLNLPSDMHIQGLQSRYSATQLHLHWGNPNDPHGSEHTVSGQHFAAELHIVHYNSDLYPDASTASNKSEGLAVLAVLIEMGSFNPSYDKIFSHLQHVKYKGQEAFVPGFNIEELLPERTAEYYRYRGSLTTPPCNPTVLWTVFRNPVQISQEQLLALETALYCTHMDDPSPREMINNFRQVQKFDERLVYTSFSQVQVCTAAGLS

B1: 3BP-3962 (peptide)
peptide: Ac-VYCE[dP]KW[Thp]EWSC-NH2
modifications: linker 3-12 via mXylylene; lactam 6-9
SMILES: CC(=O)N[C@H](C(=O)N[C@@H](Cc1ccc(O)cc1)C(=O)N[C@H]1CSCc2cccc(c2)CSC[C@@H](C(N)=O)NC(=O)[C@H](CO)NC(=O)[C@H](Cc2c[nH]c3ccccc23)NC(=O)[C@@H]2CCC(=O)NCCCC[C@H](NC(=O)[C@H]3CCCN3C(=O)[C@H](CCC(=O)O)NC1=O)C(=O)N[C@@H](Cc1c[nH]c3ccccc13)C(=O)NC1(CCOCC1)C(=O)N2)C(C)C
pIC50 [1]: 6.1 to 7 pic50

{DOTA-APAc″}-VYCE[dP]D[Aph(2Thz)]LTWSC-NH2 (linker 3-12 via mXylylene) [3BP-4180]
pIC50 [1]: 6.1 to 7 pic50

{DOTA-APAc″}-VYCE[dP]D[Aph(FAc)]LTWSC-NH2 (linker 3-12 via mXylylene) [3BP-4358]
pIC50 [2]: 6.1 to 7 pic50

{DOTA(Lu)}-QCE[dP]D[Aph(SaPr)]LTWSC-NH2 (linker 2-11 via mXylylene; also: DOTA complexing non-radioactive lutetium, also called natLu-3BP-4501) [3BP-4581: LuDOTA-Gln-[Cys(3MeBn)-Glu-pro-Asp-Aph(SaPr)-Leu-Thr-Trp-Ser-Cys]-NH2]
pKD [3]: < 6 | pKD [4]: < 6 | pKD [5]: < 6

B2: 3BP-4501: DOTA-Gln-[Cys(3MeBn)-Glu-pro-Asp-Aph(SaPr)-Leu-Thr-Trp-Ser-Cys]-NH2 (peptide)
peptide: {DOTA}-QCE[dP]D[Aph(SaPr)]LTWSC-NH2
modifications: linker 2-11 via mXylylene
SMILES: CC(C)C[C@@H]1NC(=O)[C@H](Cc2ccc(NC(=O)CCS(N)(=O)=O)cc2)NC(=O)[C@H](CC(=O)O)NC(=O)[C@H]2CCCN2C(=O)[C@H](CCC(=O)O)NC(=O)[C@@H](NC(=O)[C@H](CCC(N)=O)NC(=O)CN2CCN(CC(=O)O)CCN(CC(=O)O)CCN(CC(=O)O)CC2)CSCc2cccc(c2)CSC[C@@H](C(N)=O)NC(=O)[C@H](CO)NC(=O)[C@H](Cc2c[nH]c3ccccc23)NC(=O)[C@H]([C@@H](C)O)NC1=O
notes: Cyclic peptide with uncomplexed DOTA; also called DPI-4501
pKD [3]: < 6 | pKD [4]: < 6 | pKD [5]: < 6

{DOTA-APAc″}-VYCE[dP]DWLTWSC-NH2 (linker 3-12 via Pyridine(3,5-bisCH2)) [3BP-4141]
pIC50 [1]: 6.1 to 7 pic50

B3: 3BP-4555: LuDOTA-PPAc-Gln-[Cys(3MeBn)-Glu-pro-Asp-Af3(Cpsu)-Leu-Thr-Trp-Ser-Cys]-NH2 (peptide)
peptide: QCE[dP]D[Phe(3-NHCO(CH2)3SO2NH2)]LTWSC-NH2
modifications: linker 2-11 via mXylylene; not fully specified (N-terminus); printed as LuDOTA-PPAc-Gln-[Cys(3MeBn)-Glu-pro-Asp-Af3(Cpsu)-Leu-Thr-Trp-Ser-Cys]-NH2; also: lutetium complexed in DOTA
notes: also called natLu-DPI-4452
pKD [3]: < 6 | pKD [4]: < 6 | pKD [5]: < 6

B4: 3BP-4043 (peptide)
peptide: Ac-VYCE[dP]KWL[dD]WSC-NH2
modifications: linker 3-12 via mXylylene; lactam 6-9
SMILES: CC(=O)N[C@H](C(=O)N[C@@H](Cc1ccc(O)cc1)C(=O)N[C@H]1CSCc2cccc(c2)CSC[C@@H](C(N)=O)NC(=O)[C@H](CO)NC(=O)[C@H](Cc2c[nH]c3ccccc23)NC(=O)[C@H]2CC(=O)NCCCC[C@H](NC(=O)[C@H]3CCCN3C(=O)[C@H](CCC(=O)O)NC1=O)C(=O)N[C@@H](Cc1c[nH]c3ccccc13)C(=O)N[C@@H](CC(C)C)C(=O)N2)C(C)C
pIC50 [1]: 6.1 to 7 pic50

{DOTA-APAc″}-VYCE[dP]E(N6iQui)WLTWSC-NH2 (linker 3-12 via mXylylene; reading uncertain) [3BP-4328]
pIC50 [2]: 6.1 to 7 pic50

{DOTA-APAc″}-VYCE[dP]D[Aph(Iva)]LTWSC-NH2 (linker 3-12 via mXylylene) [3BP-4348]
pIC50 [2]: 6.1 to 7 pic50

B5: 3BP-4050 (peptide)
peptide: Ac-VYCE[dP][Dab]WLDWSC-NH2
modifications: linker 3-12 via mXylylene; lactam 6-9
SMILES: CC(=O)N[C@H](C(=O)N[C@@H](Cc1ccc(O)cc1)C(=O)N[C@H]1CSCc2cccc(c2)CSC[C@@H](C(N)=O)NC(=O)[C@H](CO)NC(=O)[C@H](Cc2c[nH]c3ccccc23)NC(=O)[C@@H]2CC(=O)NCC[C@H](NC(=O)[C@H]3CCCN3C(=O)[C@H](CCC(=O)O)NC1=O)C(=O)N[C@@H](Cc1c[nH]c3ccccc13)C(=O)N[C@@H](CC(C)C)C(=O)N2)C(C)C
pIC50 [1]: 6.1 to 7 pic50

Reference: patent US20250339569A1 (3B PHARMACEUTICALS, published 2025)
